Data from IntAct's records for PubMed 23856421.

B1: Dolichol-phosphate mannosyltransferase subunit 1 (Homo sapiens), O60762 (parent)
chain: MASLEVSRSPRRSRRELEVRSPRQNKYSVLLPTYNERENLPLIVWLLVKSFSESGINYEIIIIDDGSPDGTRDVAEQLEKIYGSDRILLRPREKKLGLGTAYIHGMKHATGNYIIIMDADLSHHPKFIPEFIRKQKEGNFDIVSGTRYKGNGGVYGWDLKRKIISRGANFLTQILLRPGASDLTGSFRLYRKEVLEKLIEKCVSKGYVFQMEMIVRARQLNYTIGEVPISFVDRVYGESKLGGNEIVSFLKGLLTLFATT
partner: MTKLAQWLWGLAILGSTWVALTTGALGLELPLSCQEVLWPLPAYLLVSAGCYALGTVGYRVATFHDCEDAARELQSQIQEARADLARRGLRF

Variants of: B1
Conditions: with dpm3_human DPM3, Q9P2X0

Variant | effect of a mutation on the interaction
G152V | disrupting interaction
